In PMC8490876, “Functional Characterization of a L-2-Haloacid Dehalogenase From Zobellia galactanivorans Dsij^T Suggests a Role in Haloacetic Acid Catabolism and a Wide Distribution in Marine Environments” (Frontiers in Microbiology, 2021) one finds stoichiometry N data, which are given here for one substance.

The experiment concerns the target recombinant ZgHAD, L-2-haloacid dehalogenase of Zobellia galactanivorans Dsij^T (Zobellia galactanivorans Dsij^T). In words: SEC; gel filtration on HiLoad 16/600 Superdex 200 pg after nickel affinity purification; oligomeric state of the recombinant protein in solution.

On to “recombinant ZgHAD, L-2-haloacid dehalogenase of Zobellia galactanivorans Dsij^T (enzyme)”, for which the stoichiometry N is 2.
